The values that follow come from publication doi:10.1101/2025.03.07.642083.

The data set deals with T1, ToAubZL (Aureochrome1 bZIP+LOV) (Thalassiosira oceanica, UniProt K0SY93 276-520).
T1 sequence: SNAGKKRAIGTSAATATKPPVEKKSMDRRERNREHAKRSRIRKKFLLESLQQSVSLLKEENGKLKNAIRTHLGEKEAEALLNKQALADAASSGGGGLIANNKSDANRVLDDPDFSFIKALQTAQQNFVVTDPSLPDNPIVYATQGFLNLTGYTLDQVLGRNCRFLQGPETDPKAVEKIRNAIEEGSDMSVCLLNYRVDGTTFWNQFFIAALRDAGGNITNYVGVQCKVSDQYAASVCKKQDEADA
As to the kind of experiment: EMSA. Background: In EMSA bound probe runs differently from free probe, usually more slowly.

B1: Aureo-box substrate DNA (dsDNA)
DNA 1: TGTAGCGTCTGACGTGGTTCCCAC
DNA 2: GTGGGAACCACGTCAGACGCTACA
With B1, the binding result is listed as “binds”.
